From patent US20090215075A1, “THREE-DIMENSIONAL STRUCTURE OF A DNAB-FAMILY R[…] (G40P), USES THEREOF, AND METHODS FOR […]-BACTERIAL PATHOGENS BY […] HELICASES AND THE INTERACTIONS OF DNAB HELICASE WITH PRIMASE” (priority 2007, published 2009)

B1: G40P N-terminal fragment N149 (other)
chain: MNPEEKTVMLYNEYAEQAVLGSILTEPELIKECPLTPEHFSPGKHFNIYFTMQDLDRKGQSVDFTSIAARVGEKLPQLGGFGYLTELAASVASTTTFKQHCQTVSEYFQKRKAISIAQQIIENVNESDDGPVKPIQEAVSELMEIEASG
notes: Contains only the N-globe and α-hairpin domains; Limits inferred from the name; Behaved like a monomer in gel filtration
B2: B. subtilis DnaG primase (protein)
chain: MGNRIPDEIVDQVQKSADIVEVIGDYVQLKKQGRNYFGLCPFHGESTPSFSVSPDKQIFHCFGCGAGGNVFSFLRQMEGYSFAESVSHLADKYQIDFPDDITVHSGARPESSGEQKMAEAHELLKKFYHHLLINTKEGQEALDYLLSRGFTKELINEFQIGYALDSWDFITKFLVKRGFSEAQMEKAGLLIRREDGSGYFDRFRNRVMFPIHDHHGAVVAFSGRALGSQQPKYMNSPETPLFHKSKLLYNFYKARLHIRKQERAVLFEGFADVISAVSSDVKESIATMGTSLTDDHVKILRRNVEEIILCYDSDKAGYEATLKASELLQKKGCKVRVAMIPDGLDPDDYIKKFGGEKFKNDIIDASVTVMAFKMQYFRKGKNLSDEGDRLAYIKDVLKEISTLSGSLEQEVYVKQLASEFSLSQESLTEQLSVFSKQNKPADNSGETKTRRAHLTTKARQKRLRPAYENAERLLLAHMLRDRSVIKKVIDRVGFQFNIDEHRALAAYLYAFYEEGAELTPQHLMARVTDDHISQLLSDILMLQVNQELSEAELSDYVKKVLNQRNWSMIKEKEAERAEAERQKDFLRAASLAQEIVTLNRSLK
B3: G40P N-terminal deletion mutant ΔN108 (enzyme)
chain: QKRKAISIAQQIIENVNESDDGPVKPIQEAVSELMEIEASGTDDDDGSIDEALVTVYEEIESADGNITGVPSGFTELDRMTYGYKRRNFVLIAARPSMGKTAFALKQAKNMSDNDDVVNLHSLEMGKKENIKRLIVTAGSINAQKIKAARRDFASEDWGKLSMAIGEISNSNINIFDKAGQSVNYIWSKTRQTKRKNPGKRVIVMIDYLQLLEPAKANDSRTNQISQISRDLKKMARELDVVVIALSQLSRQVEQRQDKRPMLSDLRESGQLEQDADIIEFLYRDDYYDKESESKNIVEVIIAKHRDGPVGTVSLAFIKEYGNFVNLERRFDDR
notes: Limits inferred from the name, by analogy with ΔN129 = residues 130-442; Forms hexamers in gel filtration
B4: G40P N-terminal deletion mutant ΔN129 (enzyme)
chain: GPVKPIQEAVSELMEIEASGTDDDDGSIDEALVTVYEEIESADGNITGVPSGFTELDRMTYGYKRRNFVLIAARPSMGKTAFALKQAKNMSDNDDVVNLHSLEMGKKENIKRLIVTAGSINAQKIKAARRDFASEDWGKLSMAIGEISNSNINIFDKAGQSVNYIWSKTRQTKRKNPGKRVIVMIDYLQLLEPAKANDSRTNQISQISRDLKKMARELDVVVIALSQLSRQVEQRQDKRPMLSDLRESGQLEQDADIIEFLYRDDYYDKESESKNIVEVIIAKHRDGPVGTVSLAFIKEYGNFVNLERRFDDR
notes: Forms hexamers in gel filtration; also called G40P-Δ129; G40P truncated monomer
B5: G40P N-terminal deletion mutant ΔN92 (enzyme)
chain: STTTFKQHCQTVSEYFQKRKAISIAQQIIENVNESDDGPVKPIQEAVSELMEIEASGTDDDDGSIDEALVTVYEEIESADGNITGVPSGFTELDRMTYGYKRRNFVLIAARPSMGKTAFALKQAKNMSDNDDVVNLHSLEMGKKENIKRLIVTAGSINAQKIKAARRDFASEDWGKLSMAIGEISNSNINIFDKAGQSVNYIWSKTRQTKRKNPGKRVIVMIDYLQLLEPAKANDSRTNQISQISRDLKKMARELDVVVIALSQLSRQVEQRQDKRPMLSDLRESGQLEQDADIIEFLYRDDYYDKESESKNIVEVIIAKHRDGPVGTVSLAFIKEYGNFVNLERRFDDR
notes: Lacks the N-globe and keeps an intact α-hairpin; Forms hexamers in gel filtration
B6: G40P N-terminal deletion mutant ΔN112 (enzyme)
chain: AISIAQQIIENVNESDDGPVKPIQEAVSELMEIEASGTDDDDGSIDEALVTVYEEIESADGNITGVPSGFTELDRMTYGYKRRNFVLIAARPSMGKTAFALKQAKNMSDNDDVVNLHSLEMGKKENIKRLIVTAGSINAQKIKAARRDFASEDWGKLSMAIGEISNSNINIFDKAGQSVNYIWSKTRQTKRKNPGKRVIVMIDYLQLLEPAKANDSRTNQISQISRDLKKMARELDVVVIALSQLSRQVEQRQDKRPMLSDLRESGQLEQDADIIEFLYRDDYYDKESESKNIVEVIIAKHRDGPVGTVSLAFIKEYGNFVNLERRFDDR
notes: as for B3
B7: G40P N-terminal fragment N171 (other)
chain: MNPEEKTVMLYNEYAEQAVLGSILTEPELIKECPLTPEHFSPGKHFNIYFTMQDLDRKGQSVDFTSIAARVGEKLPQLGGFGYLTELAASVASTTTFKQHCQTVSEYFQKRKAISIAQQIIENVNESDDGPVKPIQEAVSELMEIEASGTDDDDGSIDEALVTVYEEIESA
notes: as for B1

Legend:
[1] = target: T1, B. subtilis DnaG primase (Bacillus subtilis, UniProt P05096); experiment: Native gel shift assay of primase binding; details: native gel shift with B. subtilis DnaG primase
T1 construct: GST (N); made in house; host or cells: E. coli
Procedure: (§1) Interactions between G40P and B. subtilis DnaG primase were examined using a native gel shift assay. 10 ug of various G40P constructs were mixed with 10 ug primase in a buffer containing 25 mM TrisHCl pH 8.0, 50 mM NaCl, 5 mM MgCl2, and 1 mM ATP-γ-S and incubated for 30 minutes on ice. The protein mixtures were then analyzed by 6% polyacrymamide native gel electrophoresis at 150 voltage for one hour at 4 degrees C. The gel was stained by Coomassie blue for detection.

[2] = target: T2, B. subtilis DnaG primase (Bacillus subtilis, UniProt P05096 1-603, limits assumed); experiment: native gel shift assay, 10 ug G40P construct with 10 ug primase
T2 construct: Recombinant
T2 sequence (looked up): B2 chain
Description: G40P/DnaB replicative helicases bind DnaG primase at the replication fork, this interaction is important for coordinating DNA unwinding by the helicase with RNA primer synthesis by the primase. We investigated the requirement of N-terminal domain of G40P in primase binding using the N-terminal deletions. […] We next examined if the isolated N-terminal domain of G40P can bind primase. The two constructs containing only the N-terminal α-hairpin and N-globe domains (N149 and N171) had no detectable primase binding in native gel shift assays (FIGS. 4d and 11). Both constructs behaved like monomers in gel filtration (data not shown).
as §1, with “MgCl₂,” for “MgCl2,”

[3] = target: G40P point mutant mt4
[4] = tested on: 32P-labeled 60-base oligonucleotide annealed to circular M13mp18 ssDNA; experiment: Helicase assay; format: biochemical; details: for helicase activity (in words): compared with wt G40P
Procedure: The substrate for the helicase assay was prepared by annealing a ^32P-labeled ssDNA (a 60-base oligonucleotide) to the circular M13mp18 ssDNA. This oligonucleotide has 35 nucleotides annealed to the M13 DNA, leaving a 25-nucleotide 5′ overhang. The substrate DNA was incubated with various amounts of different G40P mutant proteins in the presence or absence of primase at 37 degrees C. for 30 minutes in a buffer containing 20 mM Tris-HCl (pH 7.5), 5 mM ATP, 10 mM MgCl2, 1 mM DTT, and 50 mM NaCl. The reaction was terminated by adding a stop solution containing 100 mM EDTA, 0.5% SDS, and 50% glycerol. Samples were analyzed on a 12% native polyacrylamide gel in 1 M Tris/borate/EDTA running buffer. The unwinding of the substrate DNA was detected by autoradiography.

Molecule	primase binding [1]	binding result [2]	primase-mediated stimulation of the ATPase and helicase activity of G40P [3]	helicase activity (in words) [4]	helicase activity retained, of the wt activity ([4]; absence of primase, relative to full-length (wt) G40P) [%]
B1	no detectable primase binding	no binding			
B2			mt4 displayed much reduced primase-mediated stimulation of the ATPase and helicase activity of G40P		
B3	devoid of primase binding	no binding		no detectable helicase activity	
B4	devoid of primase binding	no binding		no detectable helicase activity	
B5	devoid of primase binding	no binding			~66
B6	devoid of primase binding	no binding		no detectable helicase activity	
B7	no detectable primase binding	no binding			
